From US20190359683A1

Molecular target: recombinant human cardiotrophin-like cytokine factor 1 (CLCF1) (human) (UniProt Q9UBD9)
Assay: yeast display binding

Sequence of recombinant human cardiotrophin-like cytokine factor 1 (CLCF1) (human) (Q9UBD9 28-225): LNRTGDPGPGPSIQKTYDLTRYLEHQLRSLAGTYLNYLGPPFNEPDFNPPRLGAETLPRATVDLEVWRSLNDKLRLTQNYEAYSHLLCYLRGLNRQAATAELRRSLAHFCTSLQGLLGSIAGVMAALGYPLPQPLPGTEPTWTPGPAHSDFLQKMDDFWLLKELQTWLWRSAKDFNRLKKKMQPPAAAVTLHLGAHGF

Substance “yeast-displayed eCNTFR (variant 4 with Y177H and K178N) (from UniProt P26992 20-342)” has a Kd of 0.014 nM.
